Measurements as given in article PMC3364176.

Target: bovine brain microtubules (bovine) (UniProt Q6B856)
Assay: co-sedimentation

B1: GST-CSAP (glutathione S-transferase fusion with full-length centriole and spindle-associated protein) (natural protein)
chain: MSPGSGVKSEYMKRYQEPRWEEYGPCYRELLHYRLGRRLLEQAHAPWLWDDWGPAGSSEDSASSESSGAGGPAPRCAPPSPPPPVEPATQEEAERRARGAPEEQDAEAGDAEAEDAEDAALPALPVKDVEDKPEQQTRTRETDKSPTSTEPRQQPSALFARGNRKAVKSPQRSSSKIKENKHPFALYGWGEKQTDTGSQKTHNVCASAPVHEIHESALRAKNRRQVEKRKLVAQRQRAHSVDVEKNRKMKASSSENPWMTEYMRCYSARA
Kd: 1000 to 2000 nM
